What all share (test): cell-based or functional assay
For assay [1], the target named is HIV-1 Env of isolate MGRM-A-011 (clade A pseudovirus) (HIV-1).
Assay [2] has as its target HIV-1 APV-13 envelope (Env) on pseudovirus (HIV-1).
Assay [3] deals with HIV-1 envelope glycoprotein (Env) of isolate MGRM-C-013 (HIV-1).
Assay [4] addresses HIV-1 Env of isolate QH0692.42 (Acute), clade B (HIV-1).
Assay [5] has as its target HIV-1 envelope glycoprotein (Env) of isolate MGRM-C-012 (HIV-1).
Assay [6] addresses HIV-1 CMU02 Env (pseudovirus) (HIV-1).
Assay [7] deals with HIV-1 Env of pseudovirus MGRM-G-014 (HIV-1).
The target in assay [8] is HIV-1 Env of isolate 92RW008 (clade A pseudovirus) (HIV-1).
The target of assay [9] is HIV-1 Env of isolate 93IN905 (Clade C) (HIV-1).
The target of assay [10] is HIV-1 Env of pseudovirus MGRM-G-015 (HIV-1).
For assay [11], the target named is HIV-1 Env of isolate MGRM-A-012 (clade A pseudovirus) (HIV-1).
Assay [12] has as its target HIV-1 MGRM-G-006 Env (pseudovirus) (HIV-1).
Assay [13] concerns the target HIV-1 92UG005 envelope (Env) on pseudovirus (HIV-1).
Assay [14] addresses HIV-1 Env of pseudovirus MGRM-F1-008 (clade F) (HIV-1).
Assay [15] addresses HIV-1 Env of isolate MGRM-D-024 (clade D pseudovirus) (HIV-1).
Assay [16] has as its target HIV-1 Env of pseudovirus MGRM-G-025 (HIV-1).
The target of assay [17] is HIV-1 APV-6 envelope (Env) on pseudovirus (HIV-1).
Assay [18] deals with HIV-1 MGRM-AE-001 Env (pseudovirus) (HIV-1).
The target in assay [19] is HIV-1 envelope glycoprotein (Env) of isolate MGRM-C-019 (HIV-1).

In general, IC50 refers to the midpoint of a concentration-inhibition curve. Lower therefore signals higher potency.

Chain of 1443_C16 (PG16) (TCN-116) (antibody) (VH): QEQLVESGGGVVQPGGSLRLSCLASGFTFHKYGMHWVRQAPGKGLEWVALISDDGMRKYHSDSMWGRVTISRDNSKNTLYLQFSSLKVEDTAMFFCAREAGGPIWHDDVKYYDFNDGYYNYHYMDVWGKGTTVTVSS
Chain of 1443_C16 (PG16) (TCN-116) (antibody) (VL): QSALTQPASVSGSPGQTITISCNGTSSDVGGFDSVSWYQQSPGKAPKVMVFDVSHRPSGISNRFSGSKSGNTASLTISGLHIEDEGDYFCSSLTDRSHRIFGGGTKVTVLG

Regarding 4E10 (antibody), the IC50 (µg/ml), pseudovirus neutralization in assay [1] was 2.88 µg/mL; in assay [3] it was 2.1 µg/mL; in assay [4], 12.7 µg/mL; in assay [5] it was 0.44 µg/mL; in assay [6], 0.72 µg/mL; in [7] it was 13.7 µg/mL. In addition, the IC50 (µg/ml), pseudovirus neutralization in assay [8] worked out at 14.5 µg/mL; in [10], 1.07 µg/mL; in [11], 4.27 µg/mL; in [12] it was 1.23 µg/mL; in [16], 1.7 µg/mL; in assay [18], 0.85 µg/mL. In [19], this substance had an IC50 (µg/ml), pseudovirus neutralization of 3.49 µg/mL. Besides, the neutralization IC50 in assay [2] is 3.8 µg/mL; in [13], 8.86 µg/mL; in assay [17] it was 0.4 µg/mL. In addition, in assay [9], the IC90 (neutralization of pseudovirus) was found to be 12.8 µg/mL. The same substance showed a 50% inhibitory concentration (IC50) in [14] of 2.75 µg/mL. The IC50, pseudovirus neutralization in [15] is 3.6 µg/mL.
For 1443_C16 (PG16) (TCN-116) (antibody), the IC50 (µg/ml), pseudovirus neutralization is 0.24 µg/mL in assay [1]; greater than 50 µg/mL in [3]; greater than 50 µg/mL in assay [4]; 0.48 µg/mL in [5]; 43.6 µg/mL in assay [6]; 6.98 µg/mL in assay [7]. In addition, the IC50 (µg/ml), pseudovirus neutralization is 0.002 µg/mL in [8]; 5.33 µg/mL in assay [10]; 20.7 µg/mL in assay [11]; 2.42 µg/mL in assay [12]; greater than 50 µg/mL in assay [16]; 4.33 µg/mL in assay [18]. For the same substance, the IC50 (µg/ml), pseudovirus neutralization in assay [19] came out at 0.002 µg/mL. Further, the neutralization IC50 in assay [2] is greater than 50 µg/mL; in [13], greater than 50 µg/mL; in assay [17], 0.08 µg/mL. Also, in assay [9], the IC90 (neutralization of pseudovirus) is greater than 50 µg/mL. The substance also came in with an IC50 in assay [14] greater than 50 µg/mL. The substance also returned an IC50, pseudovirus neutralization in assay [15] of 0.02 µg/mL.
For the substance 2F5 (antibody), the IC50 (µg/ml), pseudovirus neutralization in assay [1] was greater than 50 µg/mL; in assay [3], 18.4 µg/mL; in assay [4] it was 5.42 µg/mL; in [5], greater than 50 µg/mL; in [6], 0.6 µg/mL; in assay [7], 9.65 µg/mL. For the same substance, the IC50 (µg/ml), pseudovirus neutralization was 10.4 µg/mL in assay [8]; 0.43 µg/mL in assay [10]; 2.36 µg/mL in [11]; 1.33 µg/mL in [12]; greater than 50 µg/mL in assay [16]; 0.29 µg/mL in [18]. For the same substance, the IC50 (µg/ml), pseudovirus neutralization in assay [19] was greater than 50 µg/mL. For the same substance, the neutralization IC50 in assay [2] was found to be 2.8 µg/mL; in assay [13], 11.8 µg/mL; in assay [17] it was 0.1 µg/mL. Further, in [9], the IC90 (neutralization of pseudovirus) is greater than 50 µg/mL. The substance also registered an IC50 in assay [14] of 1.61 µg/mL. Also, the IC50, pseudovirus neutralization in assay [15] was greater than 50 µg/mL.
